The values below are quoted from earlier work in PMC3930637.

The target of the series is HIV-1 capsid (CA) CA (Human immunodeficiency virus 1) (UniProt O93182).

pKd: −log10 of the molar value.

Chain of HIV-1 capsid (CA) CA (Human immunodeficiency virus 1) (O93182 133-363): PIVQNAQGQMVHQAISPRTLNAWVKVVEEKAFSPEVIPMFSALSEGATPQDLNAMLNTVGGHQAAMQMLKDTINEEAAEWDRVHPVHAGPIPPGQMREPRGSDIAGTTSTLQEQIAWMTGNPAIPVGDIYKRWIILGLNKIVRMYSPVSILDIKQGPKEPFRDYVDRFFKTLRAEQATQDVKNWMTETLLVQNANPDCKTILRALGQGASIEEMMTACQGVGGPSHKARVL
Chain of Nup358 cyclophilin homology domain (P49792 3067-3223): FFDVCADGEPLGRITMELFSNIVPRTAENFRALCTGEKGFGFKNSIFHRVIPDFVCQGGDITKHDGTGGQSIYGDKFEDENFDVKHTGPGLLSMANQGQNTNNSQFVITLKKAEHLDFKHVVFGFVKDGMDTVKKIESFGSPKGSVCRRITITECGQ

The term pKd denotes −log10 of the Kd, conventionally taken in molar units. Regarding “Nup358 cyclophilin homology domain (from UniProt P49792)”, the pKd is 4.03.
